Source: the domain aggregation screens of Martell et al. (2025)

test: soluble fraction after stress (log2 fold change); higher = more stays soluble; pooled small domains, quantitative proteomics; settings: stress: pH 4
Procedure, shortened: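 Custom libraries of small protein domains were pooled and measured with high-throughput quantitative proteomics after pH 4 stress. The read-out is the fold change in the amount of each domain that stays soluble after the acid stress, taken as a measure of aggregation propensity. Fold changes are on a log2 scale, and higher values mean more of the domain stayed soluble.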

Row | Sequence | soluble fraction (log2)
1 | HMEVVELTDDEKMILATLHDGPVEIGHIKQVVGLSGKKWDAATKSLRQKGLINVVLENEQKLMVK | -0.0453
2 | HMSFGWESLENKEGVADTDLHPSGWVRIEDSRIFVVSEGDFINKGSKVTVLTVDGNRVVVRELI | -1.79
3 | HMIDLSELINKTGSAYTNLRPSGTAVIGDDRVDVVTEGTFVEKDRPVKVVAVEGQRVVVREVE | -0.206
4 | HMNMSVGAALRRRRNELGMTLRELADEAELTSGFLSQVENDRVSPSLKSLGRIAEVLRIPLFQLLS | -0.659
5 | HMDIMTVGERVKKLAEKQGISLRELAKKAELSYNTVYSITRRGSERVAPDTISRLANALGVNVNELT | ≥ 0.43
6 | HMGAVPKNYFPAVEKGLQDSVQKGLLAGYPVVGVKAILYDGSYHPVDSSEMAFKTATIQAFKKGFMEA | -0.0216
7 | HMGTPSAEELAFSAQKGNAVMRIMEIREKYIENGGQISDEERNEIERLIAIYYPKASIFDYLPMMG | -1.42
8 | HMKKTDFNVENYDIEELAAILNFKYVPLNQGLIRDRIKDMKQRFKNKPEYIKFFTDVEIKLVNNLNLFN | -1.01
9 | HMEQTMNDMLKLVDLLPQNQQDIVRMRFYENMSFKEIAESNQISINTALGRMRYAILNLRKYAAERNL | -1.57
10 | HMKPSNRSYPTALRMEVIGIIRERYADFGPTLAGEKLAELHGIHLGRETIRQWMMAAGLWKDRR | -0.759
11 | HMKVNMIIVMKPGARETDIQEVSNVLKSAGLGVHISKGTERTIIGVIGDKRLLNGIPLDLMHGVDKLVPIM | -0.0619
12 | HMDSNFNYELVGFRLDDMGLNSSVIVKRNNQEFVIQKGDLLENKYLLNSVTKKNINFSYLGKNYQI | -0.731
13 | HMTEKMILKWKEALERMNDDFTTKDWLNVVIHEMGKSERTAYGWLSDMKRSGIIKDLGYGSWLKVLE | -0.2
14 | HMKIEDSNTIKLKANQAYKTHYYSEAIKLYDELLTKYEPNSEAIKLNLAHAHFKAKGFAAASKLYT | 0.22
15 | HMHDPLATLTPREHEVMSLMAEGRTNAAIAQALVIGTGAVEKNVTSIFQKLGLDDSGTDHRRVLAVLAWLQ | -1.18
16 | HMHPVEPDDPDQHILFQHLRGQDQVHIDALIRLSGWTADKVSSTLLFMELQGLVKQLPGMYYALE | -1.07
17 | HMLENSLDHIEGIGPKTKDTLLTYFKSVSKIKSANPSILAELIGAAKTKILLAAFEKEKTTS | 0.17
18 | HMSEIKDRLREARRNKGLSQAGLSKLLGVSQASIAAIESGRNKRPTNLVSIAKALDVSPYWLETGK | 0.0733
19 | HMASISDRIRLLRAESHMTQEEFGRIFGISKPTVSFYEHGKSVPNDQIKTAIARYFGVSVDYLLGVTD | -0.467
20 | HMRSMEKRLTAKVKRVQEGVQAKSQAGEQPFEVVKLMQRFPKLMQFGKHAEAETVLDKALELLGEE | -0.373
21 | HMNSVSARRSAAITAISTGRIHSQEDLVQALKKAGYPVTQATASRDIEEIGAVRIRNQKGEMVYAIS | 0.321
22 | HMNDADAHASVDAALKHLEALAETTPEVRAALELVRRGPDGRVTVDSFARVAEALREISIAVGAS | -0.632
23 | HMDNWLSGLAVEADRMILTQPGEVFDRLSRAFEATLIRRALASTGGRRIEAAHLLGIGRNTITRKIQDLGL | -1.45
24 | HMTFGENLIRLRRQQGLSQEQLGMRIGVSRQTVSKWELNDTTPEMEKLIALADLFGLSLDELTGRV | -0.392
25 | HMDTRKKLEQIFKLFDKTGTGMVNIDEFKSVLKLFMEEIDEKFGNYFIAYFDENGDGKIEFEEFADVVL | -0.462
26 | HMSKTEEIAYTTFVKYLENKDIEEVYLGNNAKIKVILKDGREMITDNPRTADFKKDLLLHDIKVVEKT | ≥ 0.43

Row | Sequence | soluble fraction (log2)
27 | HMLPAGSDAILRYLSSGAVKGIGVATAARIVEKFGDETLRILEEEPGRLAEIKGITAAKAKAIGEAFAGQ | -0.143
28 | HMGDKVLIQTAQRLKKDLPFASIVSRFGGDEFLIFLPGISSTERVETIVKKTVFLFIAISTTLF | -0.0999
29 | HMYPGQILEIYLDEIKRLYLNGLSSADIFAEIKEGSIPSVKKAIRSMKDGSAPVKITEAEESTRIAPS | -0.785
30 | HMELNEIEFENLKESIIIHLEKESLSPHELVKHIQTIHPDKVTAVIQWMLENGFIKTDAGGQLTLVSK | -0.485
31 | HMLEIRGFTVLLSDRGIVGIIEEIIQNPGQDLLRILSPEKREILVPLHSDLITGINKKKKTITMNLPDGL | -0.775
32 | HMKVPDVQYMNKDSAIEALTANELKYTIVEAENENVAAGVVISQSVERDSQVAPGTSVELVVSTG | -0.741
33 | HMAAEPDQQLIKPASDPVLRTMKIEELMKMSEQVKIQMSKAAKNFDYLEAARLRDEHFALENLIKLRS | 0.156
34 | HMRRTEKEIEQDVMRAIATIISEKGISSVTIKEVSNLSKTDVIVLERRFKNDEGLIKAYTSQ | 0.0814
35 | HMRILGIDPGYAITGYSIIDYVGNKFKLIDSGAVLTKAGVSFPLRLTKIYDDLSMIIDEYKPDA | -0.42
36 | HMYSIDNPPDWLKNLPKGAIRIGVEVFNQVLSKADDEDRARMAAWSAIKAKYEKADDGQWQPKAA | 0.221
37 | HMQQIQILPDGKIKLPDLSGTNMREAIEILHKGGLRMKPYGSGNAYQQKPAAGETVASGTTVEVLSL | 0.0974
38 | HMQQLAEQIPTDRPYISIAEAVVLFGISRDTIYRQIRKGNIPAVNLGERLTRISRIHIEAMFPKV | -0.282
39 | HMVAELAEMAENKNITSAQLALAWILKQSENIIPIPGTKRIKYLNENIEAVNVDLSKEDVENIENLLRKYP | -0.65
40 | HMVGEPEPIRYSRFLDEMKSGKLDSVVIQGDTILGVRKDKSQFKTVNPETDYSALIGALDKAGVGIEGRA | 0.149
41 | HMEIITIVSDINGKRIDAWLSEKLENYSRSFIQKLIQNENVKVNNNIVKANYKLKNGDAVAVSIPEPV | -0.261
42 | HMTPATVVIPKVAGQTVAEAKETLKNANFEIGEEKDESSDTVEEGRVIRTDPESGTNRKEGTKINLIVSS | 0.0687
43 | HMPDGTATATASVNVRSGASTLSPVLGVLRVGESIGVTGQANGGWVPVNYNGRAGYVYAAYLSFD | -0.0669
44 | HMGFEALRSRHRITAREMEVLQHMLAGRSNAEIGHTLGLSERTVKTHITSIFNKLGVDSRAQLGYMLK | 0.366
45 | HMATPTMEDYIEVIYSLVKTKGYARSADIAEKLEVYPSTVTKMLKKLDAEGYIVYEKYRGIALTDIGKKMG | -0.189
46 | HMNPFTHEEINLMSIYNAAGTREGLIAALTEMWGYLDAEETELRELADSALAKLRGITDAEYAALELE | -2.05
47 | HMDFMNSEIKKIVEDLKLTLQSLNYTKNEIKSILPVINKETDNLIKKEKYASFENLLRLAMNHLDNN | -0.929
48 | HMNIIHNPSKNFIESDLNDLKEGMEIEHKKFGYGLIKSIDKTQNHQKAVVNFKLVGEKTLLLSFARLRIV | -0.519
49 | HMQEAATSLNAKILAKLRENNGTLAVSDKSDPALISSLFGVSKGNFKKAIGALYKNGQIVIHADRIEL | 0.00478
50 | HMHHIDTAWFRGKMREHRLTQEAVGQAIGLERSMVSKIIKGTVSFNARKASAWAQLLRVSESEILERVGI | -0.379
51 | HMKGSPFSQLPKEKKKRILQAAIEVFAQNDYKHASTDEIASRAGISKGLLFYYFHDKKTLYFYLGEYLKR | 0.173
52 | HMPILRDEVYLSIKEAILTGELAPGERISIGRLLPQIGFSPTPIREALLKLEQEGFVSRLQRGGFIVSR | -0.471

Row | Sequence | soluble fraction (log2)
53 | HMTTIHVDPEKISKIIGPGGKTIKKIVEETGAKIDIEEDGRVYIAAVNSEEAAKAIDMINGI | -0.274
54 | HMDYNSYGLTERELELVDYVLKGYSRKEMAEASGLKVNTIGSYMKKIYRKLNIHNRTELKERFI | -1.31
55 | HMTASKSTVSTPEKVVYHIVFPKETKYSIAKKYGITIEELEKRNPEIIPSLSVGQKLVIKGTAPK | 0.173
56 | HMGGNDALEIAKSNPQVIEVLGEPVTKDGMGSYSVNYKNGHKTSEATIPIEGPNGTATLHVKTSGSDDAL | 0.22
57 | HMGDFLLTPHRGRSADFVIGNPPYIRLEDVPNDISDAYRAEYASMPGRADIHVGFYEKGLDL | -0.506
58 | HMQPNVTRERILAAAMTVFAQKGWQKTSLDEVAAAAGMTKGAIYWHFRNKNDLFFALLDARLQRD | -1.08
59 | HMHSRLEDIPGIGPRRRAMLLRHFGGLAELKAAGVEEIARVEGINMALAQRLWRALHGVPDPT | 0.343
60 | HMTGNWRQMHKVKSKETIYGIAKEYGITVDELTKANPGMEAPGYTLKKGDYIFIPYATADANV | 0.0315
61 | HMDATFKVRVSVPDLNIRSGPGTNYAATGRFTGVGVFTITAVQSGQGSSSGWGKLKSGAGWIALDYAKR | 0.341
62 | HMPLEKGVVILDVTPSSAKVAVDGTSVETTYPLRLSAGLHQLSAEADGYDSITEYFKVETEKTTVTLDLSK | 0.234
63 | HMRQIRELFRLKFGSLLPTSDRQIAAQLGVARSTVAEYLERARAAGLSWPLPLDLSDADLEERLFA | ≥ 0.43
64 | HMIHQPNNETTRNLIAGVVKKSLSVWETRVQVDGVDVTTAKDNLAEVHINIRYRLRHNQTPASLGLRLNLG | -0.15
65 | HMNENDPRVIKTRRLLLDSFVVLVRKKDFTSISVKDITDSAQVNRATFYAHFQDKYDILEYMVID | -0.198
66 | HMIMNDIQAKVLEIAETKDLGSITYYRLSKMLGVDHPYRVKYAIDKLIEKGLLTAKSDGSITKAI | 0.204
67 | HMGGQFVKVEVIAQIFGVTVRRVQQLTQEGVVKTTEIPGEGRRYELVPTIKTYIQYLSDKAY | 0.0375
68 | HMSVPEDLYFRELEVEGNKVRISGIASTNNRVSALMRNFDQSEWFRDPSLIKVESKSPGVNEFEIVMTRI | -0.761
69 | HMGRPTLEQLLDRAQAMGVPRERYAAYADRRWGRGWRVNPHGRGRAWDELDRYRNDPAGYLDKIEVELNQL | -0.0109
70 | HMITLYIHNLEEVGKRLDHYLVSNLDDHSRSQIQSWIRSGSILVNDRSVKTGYSLELNDQILINPPK | -0.15
71 | HMGSIGAMLSSPELYGKLATNPATRGFLSQPDFIAMLTDVQKNPDKFGSYMSDPRMMQVLSVALG | -0.103
72 | HMKFLYQKAREEIISLIQDGEIKPSEKIMPERELSELLGYNRMTIKKAINSLVAEGVLMKKRGAGTFLLG | -0.45
73 | HMQNPYDTLGVSRDSTDAEIKKAYRKLAMEHHPDKGGDSQRFAEINNAYDNIKDMSSRQNFENDPSNFQ | 0.186
74 | HMTESIKRDEAIRLNNGRIYTLDAAKIGTNEYEVMLFNPRTGEEIDSAKTSTEADAILQFDRLRRMYHR | -0.151
75 | HMLNKRQAEILAEVSRLKEITPSELYKLQPNVSSRTLRRDMDVLVNKGLVSQDGSTKSTKYTYL | 0.102
76 | HMFGEKEFYQWIGKTAGEKFSGLPAAVIKSLYKYWREYNLSEEDIMGFIRQTELLPKRTPLDVELFFEK | -1.36
